Data from patent US20210363204A1.

Biological target: human Nav1.7, Q15858
Conditions: chains peptide; modification not given

GPYCQKWMWTCDSERKCCEGMVCRLWCKKKLW [recombinant Protoxin-II]
IC50: 62 nM
